This is an account of results in the domain aggregation screens of Martell et al. (2025).

The data set is described as follows: soluble fraction after stress (log2 fold change); higher = more stays soluble; pooled small domains, quantitative proteomics. Conditions: stress: pH 4. The essentials: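 How much of each domain stays soluble after acid stress, expressed as a fold change, is used to gauge aggregation propensity. Pooled custom libraries of small domains underwent pH 4 stress before high-throughput quantitative proteomics. A higher log2 value means more of the domain stayed soluble.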
For the sequence “HMKALHEEIAEKIQEQILRSNLAPGDKLDTELELAARYGVSRSTIRQALIQLESAGLIDRLHGRGTFVAD”, the “soluble fraction (log2)” value came to 0.029.

With “HMKAPDSQYKPLTDFQTDASFQKLDAYLRNRYPAMLANAVVYDVLRTPDAISYRVNYQVDNKMITINAAVT”, the “soluble fraction (log2)” value was determined as 0.157.

As to “HMKAPLTFVIEGKEYEAFDQYKTGAELKQLAGIPLDTELFLSISKPYQDELIENEKQVNLARPETEYFFVK”, the “soluble fraction (log2)” value was -0.494.

With “HMKAQTVPQFVGMTMTEAEEKASELGITLIEGAVVDSVEPKDTILTQDVDEGTEITGKMEIMVTISS”, the “soluble fraction (log2)” value is -0.352.

As to “HMKARLRRVFQIYYGDAYSIMKALKETFPLQTIVHEPRTNSIVVDTPDEETATKIGDVVSAL”, the “soluble fraction (log2)” value is -0.563.

As to “HMKDANIQIGKRLREARLNMNLEKSEIADVLGVTVEHYRKLEAGVMGISVDKVLTLYHKYGIDPTYLITG”, the “soluble fraction (log2)” value is -0.712.

As for “HMKDEGSLKVIGQMVVIGIPQSEAKRFANTYTVAQIRAALQYTQKRSEDKNASKLENVAAYFRQALVRNWG”, the “soluble fraction (log2)” value is not below 0.43.

In the case of “HMKDHKSKWMAKTELDSIAKNLSKKHAISLDYEEDGTRFYAGGQSPLGIGRLFTVFVAPRNGHWSDQLR”, the “soluble fraction (log2)” value was -0.0435.

Turning to “HMKDLIGEAKAKELALGHAKLSASDVTFIHVELDWENGRRVYDVEFYSGAKEYDYEIDAKTGEIVSFDY”, the “soluble fraction (log2)” value came to 0.00222.

In the case of “HMKDLQHLVGEKGTTVTPLRPSGIALIKGSRYDVVSEGSFIQQGVAVEVIKVEGRRVVVSPLQED”, the “soluble fraction (log2)” value was -0.0748.

With “HMKDLSMPDVMGSSLNDAKKALTELGIMDITVRYVESGSSEGSIVGMEPPAGSKFAADGKVVLQVSSGS”, the “soluble fraction (log2)” value came out at 0.0083.

For the sequence “HMKDMKISTQNILKELATNYPDQTAFRKNVIESTAKSMGYTGKDFYPMLTAETRVKIGTYDLSALLQTV”, the “soluble fraction (log2)” value is -0.197.

With “HMKDPSFELMSVAESFYRSGNVDHAVYALEKYLEVYADGDYTDRAHDLLSQARKGLTYPHGYPPLQI”, the “soluble fraction (log2)” value was -1.33.

As to “HMKDRDISNAVLNILSKDSDHNYNYKQIASVLGVKDPFVRKRIVSVLAQLTKNGQLEEISRGKYQIKN”, the “soluble fraction (log2)” value was -0.694.

Regarding “HMKDRNISSSVLEILSKDPDHTYNYKQIAALLGVKDAFIRKRIVTLLAQLAKDGHLDEISRGKYQIK”, the “soluble fraction (log2)” value was -0.0199.

Regarding “HMKDVVAPMSGRVVRLMVAAGDEVVKRQALVVVEAMKMENVLTAPKEGRIKKVPVREGMTVEVGQTLVSFE”, the “soluble fraction (log2)” value is -0.274.

In the case of “HMKDYKSALQELIQSGDKRVISYHTLKETGPSHNREFEAAVKLDGNIILGVGKGKTKKEAEQNAAHEALKK”, the “soluble fraction (log2)” value worked out at 0.165.

Consider “HMKDYKSSLQERVQAVGGGQLIYRVNREEGPDHSKTFYMDLFLGDRLIGTGSGRNKKQAEQQAAKEAIERG”, for which the “soluble fraction (log2)” value amounted to 0.0469.

On to “HMKDYKTIFQELIQKKHKTSPIYKSYEYNDMFKAEVYVNDKSFADGIGKSKKEAETDAAKKALEKIEMA”, for which the “soluble fraction (log2)” value came out at 0.0809.

Turning to “HMKDYQGEISVVASGERIDVYLFNYFNLFSRTKIKNHIKNGNILVNENIISPSYILKQNDKIAFNLGAPY”, the “soluble fraction (log2)” value was -2.12.

Regarding “HMKDYQGNILIQSEGDRIDKFLFKYFNSFSRTKIKNHIINGNILVNDKNTIPAYVLKINDKISYDLSTSVK”, the “soluble fraction (log2)” value is -0.877.

With “HMKEAITVIGGKNNITFDASAQAEIGIYSMDGVQIQKKTISDNERIDLPAGMYVVTVKTGQANVSKVVVV”, the “soluble fraction (log2)” value was -0.145.

“HMKEDSTIIERIISNLSSASLKTQKAFEYKLTDLMFRFSEGEYEWSSAMEVIREELLPFLNK”: the “soluble fraction (log2)” value is -0.645.

“HMKEETEMVTIPDVTGKPLTEAANLLREAKLDYLAESTGTSVTKQMPLPGAEVMVNTTVLLYTG”: the “soluble fraction (log2)” value stood at 0.241.

Consider “HMKEEVMVPNVVGKELSAALLEMQVKELYPKLQLKYSNFVDDKGTVLEQSPPAGSIVKAGRRINLVVSRGA”, for which the “soluble fraction (log2)” value came to 0.0708.

For “HMKEIKAPNKINAHLIEEWRSQHPTELFPEEKVDLIYYKGEEYYFVIEEKNELGEIEEWYFAYDGGIDYV”, the “soluble fraction (log2)” value is -0.373.

In the case of “HMKEILTNESIIQFVKDKVSEEQIIYKINNSPIDFKLDVNSMVSLAKQNVSSTIIIAMENAMNN”, the “soluble fraction (log2)” value was -0.522.

Regarding “HMKELLQEMIMDILRAIASPNIDIKRKTLDLVLDLITPRNIDNVTGMLKTEVVKSQSENTSDVG”, the “soluble fraction (log2)” value was -0.572.

Take “HMKELTYSDFRKAYPDIQGNLFGMAERYITALDWTEVAAKVETDEELRKERDIFYLVKTYIRKYVQ”: the “soluble fraction (log2)” value was -0.695.

Consider “HMKELVAGQTVRVHHSIGFGQTGTVTALNSLKTTLPNGLRTNTASILFQNNEKVVLPISNFDIIES”, for which the “soluble fraction (log2)” value amounted to 0.403.

Regarding “HMKELVEDFASRISNARQSKGWNQSELAKRMAETVNVVKSAESGKSPTDSVIKKLERVLGIILM”, the “soluble fraction (log2)” value came out at 0.0723.

Regarding “HMKEQLITVYVSGAVARPGLYELPAGIRAQEAVEAAGGFTEAANHEKVNLAKKLKDGSQVNVPALK”, the “soluble fraction (log2)” value is -0.107.

Consider “HMKEQYDLNDREQQFISLVANGLNNKEIAETLFLSEGTVRNYLSNLLDKLGLRDRTQLAIFFYQHL”, for which the “soluble fraction (log2)” value was -1.74.

In the case of “HMKERLLDPYKDFIVNYLQKYPYTPAAVMHDKLKESYPDFPKVDPKTIYNFVMLLRRDFNIPKV”, the “soluble fraction (log2)” value is -0.406.

Consider “HMKETERKILQAVLGLPLKYRDVIHLFYYEEMSVKEIAEVLHRQESTVTSQLTRARGILKKNL”, for which the “soluble fraction (log2)” value is -0.377.

For “HMKETLSDTVSRKLEDMITTQMKAGNRLPTEMVLAEMYSVGRSTIRESLKALSSKGLIVRKKDGTFVSDRV”, the “soluble fraction (log2)” value came to 0.22.

As for “HMKEVKAPMPGMVLRVEVAPGQEVQEGDPLLVLEAMKMENNLKSPASGTIKSVHVEAGKAVEKGAVLVVF”, the “soluble fraction (log2)” value is -0.257.

With “HMKEVKRDQVIEAARKLFHQFGFKKVSMDEIAKEAGVTKKTIYMYFESKEELLKYFIQEEISN”, the “soluble fraction (log2)” value is -0.44.

Regarding “HMKEVVKVTITPSEKLKSQYPDALVSIDGKFYDLGILNNPVEFYMDKDHKISIIWSTAELVESFRI”, the “soluble fraction (log2)” value is -0.248.

Take “HMKEYRKEGHLYFVTEDRNNEIYLWDFTDKPKHEFKEIITSVELQKVAKEGAMLQYKNGKYELYS”: the “soluble fraction (log2)” value is -0.0848.

As to “HMKFDVNAAIRAVLNVTVDKGATLERIMKETNLTSDQLVLPIALLMKTERLHFKRSGTHEVYVSVGKAPDK”, the “soluble fraction (log2)” value was -0.0868.

With “HMKFGEQIKERRQELDLTQAEVAEKLFVTRQAVSNWEHNKTYPDLNMLVKISNVYQISLDSLLR”, the “soluble fraction (log2)” value is -0.0339.

With “HMKFHENLIALRRREGWSQEELGNRIGVTRQTVSKWELGLTTPELEKLVQLADVFGMTTDQLVGR”, the “soluble fraction (log2)” value is -0.111.

As to “HMKFNLWLSEKLKKLGLTQRKLAEQAGVSPATVSRWLSGEFEPDLTNLRKINQVLGVPERELFLQLGL”, the “soluble fraction (log2)” value is -0.0282.

As for “HMKFPNVGENLRLLRQEMGISLDKASKMTGVSKAMLGQIERGESSPTVSTLWKISSGFKINFTTLLSE”, the “soluble fraction (log2)” value was 0.224.

Turning to “HMKFPPASDIRRMRKAIDVTQTELAKQSGVSQSTIAKIERGRISASYDTVVKLFETLDEMAK”, the “soluble fraction (log2)” value is -0.00924.

On to “HMKFTPPTLEQIKNEMLLKTDEYNADIQSDRFFTYYDSNGWMVGKNKMKKFLVSLVAVFAATSA”, for which the “soluble fraction (log2)” value was -0.374.

For “HMKFYIHEIIGFNAVDKVAGIVGKVININEDSPQKKLVVNYNGKEVFIPLVDEIVRKIDKQKNEVLITMP”, the “soluble fraction (log2)” value was -0.174.

On to “HMKGEIEELLYEEVTKDNNTTFLRIYIKLNDEYNTLLNLGIIGIKTEEKVNELVNLGYKKVL”, for which the “soluble fraction (log2)” value is -2.54.

Turning to “HMKGISRVTMELIIDALKKETEPRTVQWIAEKTGLATQTTYRYLQYMVSEQTVEALNVYGKVVSLKAK”, the “soluble fraction (log2)” value is 0.153.

For the sequence “HMKGKWKPIILWQLSKAPQSLSGLRHSIAGISQKMLIQHLNELIHFGFVVRTTFEGYPLKVEYDLTDRGR”, the “soluble fraction (log2)” value was -0.251.

For “HMKGLDAAVVDLFKSKGASIVFAGNRLSLSGEVADQATKDELLAKAKAILASLGASVSLDDKLMVKGAKAS”, the “soluble fraction (log2)” value stood at 0.175.

In the case of “HMKGMIKVASMSLGADLGLYSRHLKYLGIVHRVVEESGGQSVYIQKLNDLHTAKESLELYLKNELKI”, the “soluble fraction (log2)” value is -0.476.

Take “HMKGQNRSEITAGARVKVVQKQDQRTGALTEGIVRDILTRSPHHPHGIKVRLESGIVGRVKDVL”: the “soluble fraction (log2)” value was -0.287.

Turning to “HMKGSIMIETILKELKKNNKGFNFLLEKFDISEDELMKIINDLIHDKKVFLNSNNKYEIVSD”, the “soluble fraction (log2)” value was -0.958.

Turning to “HMKGTVLAPGIILNADDQRFTYLQEDVASVAKDGAAIVLKQGDEVDFIADGQTAKQIYLTKT”, the “soluble fraction (log2)” value came out at 0.0738.

Take “HMKGVPGIGDYVKLSGGSTVGKVLSISGKKAEVAFGLLRTTTELSKLEKVRKPKELLQSGVSS”: the “soluble fraction (log2)” value is not below 0.43.

As to “HMKGVTVDGDNITVDGEKQTLISVNKNLDGDVVSYTYRTADGKLRTSRNVEVAQEINKQQLLKSIDAQ”, the “soluble fraction (log2)” value worked out at 0.0219.

As to “HMKGWPDREQAEKIWQQGIDYAIEHHTMSPQIVKEYIFHTQGIARSAALIAARLPDMDTEKAYVLGLLHD”, the “soluble fraction (log2)” value was 0.0199.

For “HMKIAEALNLRGDADSYERQEAIWLLEHIVGMSALELKYRGEQDLTEDQLQQYRSGLQRLEQGEPLAYVIG”, the “soluble fraction (log2)” value was -0.73.

With “HMKIDLKQIEGVLDELAKVKGSLITILQKTQETYGYLPKEAIIYISERTGIAESEIMGVATFYTQFRL”, the “soluble fraction (log2)” value was -0.779.

“HMKIDLTPQEEKIYSVLETELTLDEIIMKTSIKAGEALAILMDLELKKLVASVAGGKYRRKA”: the “soluble fraction (log2)” value worked out at 0.157.

Consider “HMKIEETLGKTAQVYIPIPQYLSGIGKVTLSVRGSLRELDAMTEEEKIPSNTIVRIVKVQDQVLFVKRA”, for which the “soluble fraction (log2)” value is -0.0641.

On to “HMKIHNSIREITDFDRKQNSNIPSDAKYRIVFYTPQGNKTIIPEELQGLQYYRSKELAEIALNKKLNSN”, for which the “soluble fraction (log2)” value is 0.0952.

Turning to “HMKILKQLEAIIEKEGLNESAKQFYLREISELDKEKQQEIINLVDKMEQAGFKNNLASAFSEVTEDIPQF”, the “soluble fraction (log2)” value is -0.518.

In the case of “HMKILNYQSLVGKKGITKSMLRPAGIVEIEGRRYDVVTRGEFIEPGKMITVDEVQGNRIIVQIERE”, the “soluble fraction (log2)” value was determined as 0.189.

“HMKIPIIYQPLKNAKRIKIYIPYELKELRTIFKKINTTFWHPNQKLWSIIYTQENVALIKNLFGKNYKIVN”: the “soluble fraction (log2)” value was -0.0514.

Turning to “HMKIQEVDYSTFLNMLNEKSIAQVEIQDNQIAFNSNQEGNKQIYVTGRIEEDTELVNRLQAAGVQFSRV”, the “soluble fraction (log2)” value was -0.638.

As for “HMKIRIIKTASNAKAVQIVSYKNNKRIVLQHIGSAHTDETLNDLKILAEEWIKDYNHQLSIF”, the “soluble fraction (log2)” value is -0.671.
